# Test results as given in PMC314469, “Protein Interaction Networks by Proteome Peptide Scanning” (PLoS Biology, 2004).
# T1: amphyphisin SH3 (AMPH_HUMAN), P49418
# T1 chain: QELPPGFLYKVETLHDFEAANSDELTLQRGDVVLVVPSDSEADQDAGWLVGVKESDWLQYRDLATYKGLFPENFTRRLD
# B1: Q9UPN7 147-160 (peptide)
# chain: TLLEPRRPRSESVT
# B2: Q9ULT1 709-722 (peptide)
# chain: TPPDPPRPKRRSHS
# B3: Q9H296 344-357 (peptide)
# chain: TMSSIYRPLKPRTN
# B4: Q9BR39 363-376 (peptide)
# chain: TPPQPKRPRPGVSK
# B5: Q9H0X6 10-23 (peptide)
# chain: TPPLPRRPRKGSSE
# B6: Q8WV92 138-151 (peptide)
# chain: SEMLIKRPSKVKTI
# B7: Q9BZH3 389-402 (peptide)
# chain: TQPVLKRPRHVHSH
# B8: Q9H898 117-131 (peptide)
# chain: TPLSPLKPPRMDTA
# B9: O75598 106-119 (peptide)
# chain: SEHNPKRPVTSEQG
# B10: Q14678 130-143 (peptide)
# chain: TPGEFRRPRLASFG
# B11: Q9NRA0 137-150 (peptide)
# chain: TPDLLPRPPRLLLL
# B12: Q9H6K5 343-356 (peptide)
# chain: TLQAPRRPPTPGPD
# B13: Q9NSG0 388-402 (peptide)
# chain: TKTPPPRPPLPTQQ
# B14: Q9P242 471-484 (peptide)
# chain: TPLSLKRPPPYDAV
# B15: Q9Y6C2 143-156 (peptide)
# chain: TPRPLARPARPNLS
# B16: Q9NYK9 18-31 (peptide)
# chain: TLLALQRPQRLHHH
# B17: Q9Y2E4 59-73 (peptide)
# chain: TLKRPKRPPLREFF
# B18: Q9BXX2 182-195 (peptide)
# chain: TPRKILRPTKETSE
# B19: Q14068 72-85 (peptide)
# chain: TPSELERPSRMVSR
# B20: Q9BUY9 390-404 (peptide)
# chain: TPASPRRPPALRSQ
# B21: Q9BXL6 817-830 (peptide)
# chain: TLVWPHRPARPRPV
# B22: P42331 33-46 (peptide)
# chain: TPNPLERPIKMGWL
# B23: Q9GZM7 384-397 (peptide)
# chain: TPVSLGRPERYRRH
# B24: Q9HD71 354-368 (peptide)
# chain: TPTVPLKPPPPLTL
# B25: Q8WX45 160-174 (peptide)
# chain: TPAPPLRPPDSLSR
# B26: Q969I6 440-453 (peptide)
# chain: TLLFPKRPFSWIRH
# B27: Q9NWH1 363-376 (peptide)
# chain: TPKPPKRPRLQRPA
# B28: Q9H462 843-857 (peptide)
# chain: TPPIPSKPPGGFGK
# B29: Q9Y6Y1 1215-1228 (peptide)
# chain: TNPELRRPRSEPSN
# B30: Q12946 14-27 (peptide)
# chain: TNAGIRRPEKPPYS
# B31: P40126 196-209 (peptide)
# chain: TLLGPGRPYRAIDF
# B32: O75949 160-174 (peptide)
# chain: TPAPPLRPPDSPSR
# B33: P43652 501-514 (peptide)
# chain: TNFAFRRPSFESLK
# B34: AAH28697 239-253 (peptide)
# chain: TNFPPPRPPPPSRP
# B35: P35568 851-864 (peptide)
# chain: TNSRLARPTRLSLG
# B36: Q9H4S4 61-74 (peptide)
# chain: SELRLSRPPKAYGS
# B37: Q9BZW3 294-307 (peptide)
# chain: SEVPLKRPRLDKNS
# B38: Q9UPV7 127-140 (peptide)
# chain: TPPAFIRPTRKLDD
# B39: Q96NX2 23-37 (peptide)
# chain: TLKRPKRPPLKEFF
# B40: Q9BUY9 649-662 (peptide)
# chain: TPRGPRRPSGPAEL
# B41: O95206 1031-1044 (peptide)
# chain: TLLSPPRPGRLPDL
# B42: Q9P2Z0 180-193 (peptide)
# chain: TQISLKRPRHRSVG
# Molecular target: T1, amphyphisin SH3 (AMPH_HUMAN), P49418
# Assay: SPOT array
row,"normalised SPOT signal, Boehringer light units (BLU); mean over the file's lines of this peptide",Binder
1,29.7,B1
2,2330,B2
3,97.2,B3
4,343,B4
5,2900,B5
6,62.6,B6
7,46.6,B7
8,334,B8
9,33.3,B9
10,44.3,B10
11,830,B11
12,35.3,B12
13,708,B13
14,19.2,B14
15,3020,B15
16,3250,B16
17,3950,B17
18,173,B18
19,772,B19
20,843,B20
21,613,B21

row,"normalised SPOT signal, Boehringer light units (BLU); mean over the file's lines of this peptide",Binder
1,94,B22
2,644,B23
3,39.3,B24
4,446,B25
5,123,B26
6,381,B27
7,41.7,B28
8,34.7,B29
9,70.3,B30
10,184,B31
11,280,B32
12,45.2,B33
13,1610,B34
14,1760,B35
15,36.1,B36
16,45.5,B37
17,173,B38
18,2720,B39
19,31.6,B40
20,443,B41
21,6.5,B42

# Molecular target: endophilin SH3 (SH3G2_HUMAN), Q99962
# Assay: SPOT array
row,"normalised SPOT signal, Boehringer light units (BLU); mean over the file's lines of this peptide",Binder
1,113,B1
2,202,B2
3,120,B3
4,253,B4
5,2360,B5
6,48.1,B6
7,60.5,B7
8,56.4,B8
9,19.4,B9
10,720,B10
11,94.4,B11
12,1890,B12
13,13500,B13
14,67.5,B14
15,610,B15
16,877,B16
17,24900,B17
18,30.9,B18
19,29,B19
20,6640,B20
21,2240,B21

row,"normalised SPOT signal, Boehringer light units (BLU); mean over the file's lines of this peptide",Binder
1,59.1,B22
2,398,B23
3,904,B24
4,647,B25
5,1590,B26
6,8220,B27
7,995,B28
8,41.2,B29
9,113,B30
10,488,B31
11,2060,B32
12,414,B33
13,11200,B34
14,1890,B35
15,13.3,B36
16,65.5,B37
17,146,B38
18,15000,B39
19,30,B40
20,192,B41
21,27.6,B42
